Values quoted from earlier work, collected in paper PMC4520744.

Target: HBV capsid protein (Hepatitis B virus) (UniProt P03149)

HBV capsid protein (from UniProt P03149)
Kd: 3000 µM
